The target in this assay is T1, biotinylated human DLL3 protein expressed as a human IgG1 fusion protein (human, UniProt Q9NYJ7 27-492, limits assumed, biotinylated).
T1 sequence: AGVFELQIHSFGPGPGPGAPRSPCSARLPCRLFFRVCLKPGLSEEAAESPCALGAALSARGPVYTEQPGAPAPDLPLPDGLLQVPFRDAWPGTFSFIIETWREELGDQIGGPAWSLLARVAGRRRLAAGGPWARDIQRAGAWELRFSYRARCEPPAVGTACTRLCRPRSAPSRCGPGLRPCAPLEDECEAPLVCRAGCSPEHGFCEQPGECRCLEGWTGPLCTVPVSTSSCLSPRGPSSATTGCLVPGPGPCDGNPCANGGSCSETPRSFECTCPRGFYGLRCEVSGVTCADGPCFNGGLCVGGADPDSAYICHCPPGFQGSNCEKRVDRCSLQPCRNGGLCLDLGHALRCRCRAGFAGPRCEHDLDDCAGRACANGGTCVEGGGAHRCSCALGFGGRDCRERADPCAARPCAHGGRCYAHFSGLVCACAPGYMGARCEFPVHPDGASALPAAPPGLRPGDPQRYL
Briefly: Octet BLI, single 50 nM. Put shortly:
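First, biotinylated DLL3-Fc fusion is loaded onto the tips. Next, conditioned medium carrying trispecific protein at known concentration is applied as analyte. Affinity is then derived from the recorded binding.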
A general note: BLI is a label-free optical method that tracks binding on a fibre tip over time.

By Kd is commonly meant the free concentration of one partner at which half of the binding sites on the other are occupied at equilibrium, for simple one-to-one binding. Low values mean higher affinity, high ones lower affinity.

B1: 3C01 anti-DLL3 trispecific protein (other)
chain: EVQLVESGGGLVQPGGSLTLSCAASGSSVRFLSMAWYRQAPGKKRELVAGISAHGSTDYIDSVKGRFTISRDNAKNSVYLQMNSLRAEDTAVYYCYAYRWSTRYTYWGQGTLVTVSS
notes: not shown: linker 1808, anti-albumin sdAb, linker 1808, anti-CD3 fragment, His6 1819
B1 displayed a Kd of 14 nM.

B2: 3D011 anti-DLL3 trispecific protein (other)
chain: EVQLVESGGGLVQPGGSLTLSCAASGSSVSRLSMAWYRQAPGKKRELVAGISADGSRDYIDSVKGRFTISRDNAKNSVYLQMNSLRAEDTAVYYCYAYRWTTRYKYWGQGTLVTVSS
notes: as for B1
B2 displayed a Kd of 5.3 nM.

B3: 3D08 anti-DLL3 trispecific protein (other)
chain: EVQLVESGGGLVQPGGSLTLSCAASGSSVRFLSMAWYRQAPGKKRELVAGISANGSTDYIDSVKGRFTISRDNAKNSVYLQMNSLRAEDTAVYYCYAYRWTNRYTYWGQGTLVTVSS
notes: as for B1
B3 had an equilibrium dissociation constant (Kd) of 17 nM.

B4: 3E02 anti-DLL3 trispecific protein (other)
chain: EVQLVESGGGLVQPGGSLTLSCAASGSGVRFLSMAWYRQAPGKKRELVAGISPDGSTDYIDSVKGRFTISRDNAKNSVYLQMNSLRAEDTAVYYCYAYRWTRRYTYWGQGTLVTVSS
notes: as for B1
Regarding B4, the Kd came out at 12 nM.

B5: 3D03 anti-DLL3 trispecific protein (other)
chain: EVQLVESGGGLVQPGGSLTLSCAASGSSVVFLSMAWYRQAPGKKRELVAGISADGSMDYIDSVKGRFTISRDNAKNSVYLQMNSLRAEDTAVYYCYAYRWRTRYTYWGQGTLVTVSS
notes: as for B1
Regarding B5, the Kd was determined as 11 nM. This Kd and that of the molecule before are within 1.5-fold of each other.

B6: 3F08 anti-DLL3 trispecific protein (other)
chain: EVQLVESGGGLVQPGGSLTLSCAASGSRVSFLSMAWYRQAPGKKRELVAGISADGSTLYIDSVKGRFTISRDNAKNSVYLQMNSLRAEDTAVYYCYAYRWHTRYTYWGQGTLVTVSS
notes: as for B1
Turning to B6, the Kd was found to be 14 nM.

B7: 3F06 anti-DLL3 trispecific protein (other)
chain: EVQLVESGGGLVQPGGSLTLSCAASGSRVSFLSMAWYRQAPGKKRELVAGISADGSTSYIDSVKGRFTISRDNAKNSVYLQMNSLRAEDTAVYYCYAYRWATRYTYWGQGTLVTVSS
notes: as for B1
In the case of B7, binding was characterised by a dissociation constant (Kd) of 9.9 nM.

B8: 3E01 anti-DLL3 trispecific protein (other)
chain: EVQLVESGGGLVQPGGSLTLSCAASGSSVKFLSMAWYRQAPGKKRELVAGISADGSTMYIDSVKGRFTISRDNAKNSVYLQMNSLRAEDTAVYYCYAYRWHTRYTYWGQGTLVTVSS
notes: as for B1
As to B8, binding was put at a Kd of 16 nM. This Kd lies about 1.6-fold higher than the previous one.

B9: 3D010 anti-DLL3 trispecific protein (other)
chain: EVQLVESGGGLVQPGGSLTLSCAASGSSKSFLSMAWYRQAPGKKRELVAGISADGSTSYIDSVKGRFTISRDNAKNSVYLQMNSLRAEDTAVYYCYAYRWTTRYTYWGQGTLVTVSS
notes: as for B1
On to B9, for which binding was put at a Kd of 14 nM.

B10: 3C08 anti-DLL3 trispecific protein (other)
chain: EVQLVESGGGLVQPGGSLTLSCAASGSSVKFLSMAWYRQAPGKKRELVAGISLDGSTDYIDSVKGRFTISRDNAKNSVYLQMNSLRAEDTAVYYCYAYRWTGRYTYWGQGTLVTVSS
notes: as for B1
For B10, the Kd turned out to be 5.9 nM.

B11: 3C06 anti-DLL3 trispecific protein (other)
chain: EVQLVESGGGLVQPGGSLTLSCAASGTSVSFLSIAWYRQAPGKKRELVAGISADGSTDYIASVKGRFTISRDNAKNSVYLQMNSLRAEDTAVYYCYAYRWRTRYTYWGQGTLVTVSS
notes: as for B1
B11: the dissociation constant (Kd) was found to be 10 nM.

B12: 3E011 anti-DLL3 trispecific protein (other)
chain: EVQLVESGGGLVQPGGSLTLSCAASGSKVSFLSMAWYRQAPGKKRELVAGISRDGSTDYIDSVKGRFTISRDNAKNSVYLQMNSLRAEDTAVYYCYAYRWTTRYTFWGQGTLVTVSS
notes: as for B1
For the molecule B12, the Kd amounted to 11 nM.

B13: 3D01 anti-DLL3 trispecific protein (other)
chain: EVQLVESGGGLVQPGGSLTLSCAASGSSVSFLSMAWYRQAPGKKRELVAGISRDGSTDYIDSVKGRFTISRDNAKNSVYLQMNSLRAEDTAVYYCYAYRWITRYTYWGQGTLVTVSS
notes: as for B1
B13 came in with a Kd of 10 nM.

B14: 3C09 anti-DLL3 trispecific protein (other)
chain: EVQLVESGGGLVQPGGSLTLSCAASGSSVSFLSMAWYRQAPGKKRELVAGISADGSTIYIDSVKGRFTISRDNAKNSVYLQMNSLRAEDTAVYYCYAYRWRTRYTYWGQGTLVTVSS
notes: as for B1
The molecule B14 gave a Kd of 7.8 nM.

B15: 3E09 anti-DLL3 trispecific protein (other)
chain: EVQLVESGGGLVQPGGSLTLSCAASGSSVRFLSMAWYRQAPGKKRELVAGISRDGSTDYIDSVKGRFTISRDNAKNSVYLQMNSLRAEDTAVYYCYAYRWSTRYTYWGQGTLVTVSS
notes: as for B1
Turning to B15, the Kd worked out at 10 nM.

B16: 3F09 anti-DLL3 trispecific protein (other)
chain: EVQLVESGGGLVQPGGSLTLSCAASGSSVRFLSMAWYRQAPGKKRELVAGISRDGSTDYIDSVKGRFTISRDNAKNSVYLQMNSLRAEDTAVYYCYAYRWGTRYTYWGQGTLVTVSS
notes: as for B1
Molecule B16 returned a Kd of 12 nM.

B17: 3C02 anti-DLL3 trispecific protein (other)
chain: EVQLVESGGGLVQPGGSLTLSCAASGSSVRFLSMAWYRQAPGKKRELVAGISADGSTIYIDSVKGRFTISRDNAKNSVYLQMNSLRAEDTAVYYCYAYRWRTRYTYWGQGTLVTVSS
notes: as for B1
As to B17, the Kd is 9.1 nM. This Kd and that of the molecule before are within 1.5-fold of each other.

B18: 3G01 anti-DLL3 trispecific protein (other)
chain: EVQLVESGGGLVQPGGSLTLSCAASGSSVSFLSMAWYRQAPGKKRELVAGISADGSTLYIDSVKGRFTISRDNAKNSVYLQMNSLRAEDTAVYYCYAYRWTTRYAYWGQGTLVTVSS
notes: as for B1
For the molecule B18, binding was put at a Kd of 8.2 nM.

B19: 3F010 anti-DLL3 trispecific protein (other)
chain: EVQLVESGGGLVQPGGSLTLSCAASYSSVSRLSMAWYRQAPGKKRELVAGISADGSTVYIDSVKGRFTISRDNAKNSVYLQMNSLRAEDTAVYYCYAYRWTTRNTYWGQGTLVTVSS
notes: as for B1
In the case of B19, the affinity, expressed as Kd, was 4.4 nM.

B20: 3F011 anti-DLL3 trispecific protein (other)
chain: EVQLVESGGGLVQPGGSLTLSCAASGSSVSFLSMAWYRQAPGKKRELVAGISTDGSTDYIDSVKGRFTISRDNAKNSVYLQMNSLRAEDTAVYYCYAYRWRTRYTYWGQGTLVTVSS
notes: as for B1
Regarding B20, the dissociation constant (Kd) came to 7.1 nM.

B21: 3C05 anti-DLL3 trispecific protein (other)
chain: EVQLVESGGGLVQPGGSLTLSCVASGTSVSFLSMAWYRQAPGKKRELVAGISADGSTTYIDSVKGRFTISRDNAKNSVYLQMNSLRAEDTAVYYCYAYRWTTRRTYWGQGTLVTVSS
notes: as for B1
Molecule B21 had a dissociation constant Kd of 8.2 nM.

B22: 3D05 anti-DLL3 trispecific protein (other)
chain: EVQLVESGGGLVQPGGSLTLSCAASGSSVRFLSMAWYRQAPGKKRELVAGISADGSTDYIDSVKGRFTISRDNAKNSVYLQMNSLRAEDTAVYYCYAYRWTRRYTYWGQGTLVTVSS
notes: as for B1
The molecule B22 had a dissociation constant Kd of 16 nM.

B23: 3G04 anti-DLL3 trispecific protein (other)
chain: EVQLVESGGGLVQPGGSLTLSCVASGTSVSFLSMAWYRQAPGKKRELVAGISADGSTIYIDSVKGRFTISRDNAKNSVYLQMNSLRAEDTAVYYCYAYRWTTRRTYWGQGTLVTVSS
notes: as for B1
Molecule B23 showed a Kd of 8.8 nM.

B24: 3E04 anti-DLL3 trispecific protein (other)
chain: EVQLVESGGGLVQPGGSLTLSCAASGSSVHFLSMAWYRQAPGKKRELVAGISRDGSTDYIDSVKGRFTISRDNAKNSVYLQMNSLRAEDTAVYYCYAYRWTTRYRYWGQGTLVTVSS
notes: as for B1
Regarding B24, binding was characterised by a dissociation constant (Kd) of 11 nM.

B25: 3C03 anti-DLL3 trispecific protein (other)
chain: EVQLVESGGGLVQPGGSLTLSCAASGSSVRFLSMAWYRQAPGKKRELVAGISRDGSTVYIDSVKGRFTISRDNAKNSVYLQMNSLRAEDTAVYYCYAYRWTTRGTYWGQGTLVTVSS
notes: as for B1
On to B25, for which the affinity, expressed as Kd, was 4.9 nM.

B26: 3C011 anti-DLL3 trispecific protein (other)
chain: EVQLVESGGGLVQPGGSLTLSCAASGSSVRFLSMAWYRQAPGKKRELVAGISAHGSTDYIDSVKGRFTISRDNAKNSVYLQMNSLRAEDTAVYYCYAYRWRTRYTYWGQGTLVTVSS
notes: as for B1
With B26, the dissociation constant (Kd) is 14 nM.

B27: 3E03 anti-DLL3 trispecific protein (other)
chain: EVQLVESGGGLVQPGGSLTLSCAASGSSVRFLSMAWYRQAPGKKRELVAGISGDGSTDYIDSVKGRFTISRDNAKNSVYLQMNSLRAEDTAVYYCYAYRWMTRYTYWGQGTLVTVSS
notes: as for B1
With B27, binding was characterised by a dissociation constant (Kd) of 20 nM.

B28: 3G02 anti-DLL3 trispecific protein (other)
chain: EVQLVESGGGLVQPGGSLTLSCAASGSSVSFLSMAWYRQAPGKKRELVAGISADGRTDYIDSVKGRFTISRDNAKNSVYLQMNSLRAEDTAVYYCYAYRWRTRYTYWGQGTLVTVSS
notes: as for B1
In the case of B28, the Kd was 20 nM. This lies in the double-digit nanomolar range.

B29: 3F05 anti-DLL3 trispecific protein (other)
chain: EVQLVESGGGLVQPGGSLTLSCAASGSKVSFLSMAWYRQAPGKKRELVAGISTDGSTDYIDSVKGRFTISRDNAKNSVYLQMNSLRAEDTAVYYCYAYRWTTRRTYWGQGTLVTVSS
notes: as for B1
Take B29: binding was characterised by a dissociation constant (Kd) of 7.5 nM.

B30: 3D02 anti-DLL3 trispecific protein (other)
chain: EVQLVESGGGLVQPGGSLTLSCAASGSSVRFLSMAWYRQAPGKKRELVAGISRDGSTDYIDSVKGRFTISRDNAKNSVYLQMNSLRAEDTAVYYCYAYRWITRYTYWGQGTLVTVSS
notes: as for B1
B30 showed a Kd of 12 nM.

B31: 3D09 anti-DLL3 trispecific protein (other)
chain: EVQLVESGGGLVQPGGSLTLSCAASGSSVSRLSMAWYRQAPGKKRELVAGISANGSTTYIDSVKGRFTISRDNAKNSVYLQMNSLRAEDTAVYYCYAYRWTTRYRYWGQGTLVTVSS
notes: as for B1
With B31, binding was put at a Kd of 32 nM.

These data come from US20240141072A1 (published 2024).
